Molecular target: human NGF (Homo sapiens, UniProt P01138)
Assay: binding affinity; method not given

Chain of human NGF (P01138 122-241 limits assumed): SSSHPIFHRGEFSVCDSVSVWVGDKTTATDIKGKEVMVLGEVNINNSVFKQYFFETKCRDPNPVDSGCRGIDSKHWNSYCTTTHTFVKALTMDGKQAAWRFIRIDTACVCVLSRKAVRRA

B1: humanized anti-NGF antibody E3 (antibody, V domains shown)
VH: VQLQESGPGLVKLPSETLSLTCTVSGFSLIGYDLNWIRQPPGKGLEWIGIIWGDGTTDYNSAVKSRVTISKDTSKNQFSLKLSSVTAADTAVYYCARGGYWYATSYYFDYWGQGTLVTVS
VL: DIQMTQSPSSLSASVGDRVTITCRASQSISNNLNWYQQKPGKAPKLLIYYTSRFHSGVPSRFSGSGSGTDFTFTISSLQPEDIATYYCQQEHTLPYTFGQGTKLEIK
Binder B1 has a Kd of 0.07 nM.

— patent publication US20040131615A1, “Methods for treating pain by administering a nerve growth factor antagonist and an opioid analgesic and compositions containing the same” (priority 2002, published 2004)
